Assays:
[1] = tested on: HEK293FT cells transfected with TF library; experiment: Screening of TF condensates based on fluorescent puncta; assay type: cell-based; conditions: Figure 1B numerical data; TF library screen, one value per transcriptional factor
In short: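 Condensate formation is scored as Alexa 488-labelled puncta after Flag- or GAL4-tag immunostaining of fixed HEK293FT cells expressing individual TFs, with a 12 h glucose-free or glucose-containing culture preceding fixation.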

[2] = tested on: GFP-TEAD4 condensates; experiment: siRNA screening based on TEAD4 condensate; assay type: cell-based; conditions: Figure 2B source data; siRNA against the named gene; Z score based analysis
Method: siRNA reagents were obtained from the Dharmacon Human ON-TARGETplus siRNA Smartpool Library (Thermo) as described previously (Tang et al, [2020]). […] Lipofectamine RNAiMAX reagent (Thermo) at a volume of 0.05 μl per well was then added to the siRNA-loaded plates. Subsequently, cells expressing GFP-TEAD4 were seeded into the plate at 2000 cells per well. After subsequent transfection for 48 h, the cells were fixed with 4% PFA at room temperature for 30 min. DAPI was used to identify individual nuclei. The plates were kept at 4 °C in the dark before being analyzed using the Opera system. Twenty focus fields per well were scanned and analyzed. Scrambled siRNA was used as an internal reference on each plate.

[3] = tested on: HGC-27 cells; experiment: siRNA screening based on cell growth; set-up: species or system human; conditions: Figure 2B source data; siRNA against the named gene; Z score based analysis
Method: For screening based on cell growth, HGC-27 cells (2000 per well) were seeded into a 96-well plate overnight. The individual siRNAs targeting 192 BioID-identified genes were then added into each well to a final concentration of 25 nM. After subsequent incubation for 48 h, the cells were analyzed using an ATP-based CellCounting-Lite^TM 2.0 reagent (Vazyme, Nanjing, China) according to the manufacturer’s instructions. The intracellular ATP contents were measured using an EnSight™ Multimode Microplate Reader (Perkin Elmer).

| Molecule | Z score of condensed fraction [1] | Z score of condensed fraction [2] | Z score of cell growth [3] |
| --- | --- | --- | --- |
| CLOCK (protein, UniProt O15516 1-846, looked up) Circadian locomoter output …: MLFTVSCSKMSSIVDRDDSSIFDGLVEEDDKDKAKRVSRNKSEKKRRDQFNVLIKELGSMLPGNARKMDKSTVLQKSIDFLRKHKEITAQSDASEIRQDWKPTFLSNEEFTQLMLEALDGFFLAIMTDGSIIYVSESVTSLLEHLPSDLVDQSIFNFIPEGEHSEVYKILSTHLLESDSLTPEYLKSKNQLEFCCHMLRGTIDPKEPSTYEYVKFIGNFKSLNSVSSSAHNGFEGTIQRTHRPSYEDRVCFVATVRLATPQFIKEMCTVEEPNEEFTSRHSLEWKFLFLDHRAPPIIGYLPFEVLGTSGYDYYHVDDLENLAKCHEHLMQYGKGKSCYYRFLTKGQQWIWLQTHYYITYHQWNSRPEFIVCTHTVVSYAEVRAERRRELGIEESLPETAADKSQDSGSDNRINTVSLKEALERFDHSPTPSASSRSSRKSSHTAVSDPSSTPTKIPTDTSTPPRQHLPAHEKMVQRRSSFSSQSINSQSVGSSLTQPVMSQATNLPIPQGMSQFQFSAQLGAMQHLKDQLEQRTRMIEANIHRQQEELRKIQEQLQMVHGQGLQMFLQQSNPGLNFGSVQLSSGNSSNIQQLAPINMQGQVVPTNQIQSGMNTGHIGTTQHMIQQQTLQSTSTQSQQNVLSGHSQQTSLPSQTQSTLTAPLYNTMVISQPAAGSMVQIPSSMPQNSTQSAAVTTFTQDRQIRFSQGQQLVTKLVTAPVACGAVMVPSTMLMGQVVTAYPTFATQQQQSQTLSVTQQQQQQSSQEQQLTSVQQPSQAQLTQPPQQFLQTSRLLHGNPSTQLILSAAFPLQQSTFPQSHHQQHQSQQQQQLSRHRTDSLPDPSKVQPQ | -0.2095 |  |  |
| ABT1 (protein, UniProt Q9ULW3 1-272, looked up) Activator of basal …: MEAEESEKAATEQEPLEGTEQTLDAEEEQEESEEAACGSKKRVVPGIVYLGHIPPRFRPLHVRNLLSAYGEVGRVFFQAEDRFVRRKKKAAAAAGGKKRSYTKDYTEGWVEFRDKRIAKRVAASLHNTPMGARRRSPFRYDLWNLKYLHRFTWSHLSEHLAFERQVRRQRLRAEVAQAKRETDFYLQSVERGQRFLAADGDPARPDGSWTFAQRPTEQELRARKAARPGGRERARLATAQDKARSNKGLLARIFGAPPPSESMEGPSLVRDS | -0.3156 |  |  |
| CREM (protein, UniProt Q03060 1-345, looked up) cAMP-responsive element …: MTMETVESQHDGSITASLTESKSAHVQTQTGQNSIPALAQVSVAGSGTRRGSPAVTLVQLPSGQTIHVQGVIQTPQPWVIQSSEIHTVQVAAIAETDESAESEGVIDSHKRREILSRRPSYRKILNELSSDVPGVPKIEEERSEEEGTPPSIATMAVPTSIYQTSTGQYIAIAQGGTIQISNPGSDGVQGLQALTMTNSGAPPPGATIVQYAAQSADGTQQFFVPGSQVVVQDEETELAPSHMAAATGDMPTYQIRAPTAALPQGVVMAASPGSLHSPQQLAEEATRKRELRLMKNREAAKECRRRKKEYVKCLESRVAVLEVQNKKLIEELETLKDICSPKTDY | -0.7399 |  |  |
| CREB5 (protein, UniProt Q02930 1-508, looked up) Cyclic AMP-responsive …: MIYEESKMNLEQERPFVCSAPGCSQRFPTEDHLMIHRHKHEMTLKFPSIKTDNMLSDQTPTPTRFLKNCEEVGLFSELDCSLEHEFRKAQEEESSKRNISMHNAVGGAMTGPGTHQLSSARLPNHDTNVVIQQAMPSPQSSSVITQAPSTNRQIGPVPGSLSSLLHLHNRQRQPMPASMPGTLPNPTMPGSSAVLMPMERQMSVNSSIMGMQGPNLSNPCASPQVQPMHSEAKMRLKAALTHHPAAMSNGNMNTMGHMMEMMGSRQDQTPHHHMHSHPHQHQTLPPHHPYPHQHQHPAHHPHPQPHHQQNHPHHHSHSHLHAHPAHHQTSPHPPLHTGNQAQVSPATQQMQPTQTIQPPQPTGGRRRRVVDEDPDERRRKFLERNRAAATRCRQKRKVWVMSLEKKAEELTQTNMQLQNEVSMLKNEVAQLKQLLLTHKDCPITAMQKESQGYLSPESSPPASPVPACSQQQVIQHNTITTSSSVSEVVGSSTLSQLTTHRTDLNPIL | -0.7141 |  |  |
| CRY1 (protein, UniProt Q16526 1-586, looked up) Cryptochrome-1: MGVNAVHWFRKGLRLHDNPALKECIQGADTIRCVYILDPWFAGSSNVGINRWRFLLQCLEDLDANLRKLNSRLFVIRGQPADVFPRLFKEWNITKLSIEYDSEPFGKERDAAIKKLATEAGVEVIVRISHTLYDLDKIIELNGGQPPLTYKRFQTLISKMEPLEIPVETITSEVIEKCTTPLSDDHDEKYGVPSLEELGFDTDGLSSAVWPGGETEALTRLERHLERKAWVANFERPRMNANSLLASPTGLSPYLRFGCLSCRLFYFKLTDLYKKVKKNSSPPLSLYGQLLWREFFYTAATNNPRFDKMEGNPICVQIPWDKNPEALAKWAEGRTGFPWIDAIMTQLRQEGWIHHLARHAVACFLTRGDLWISWEEGMKVFEELLLDADWSINAGSWMWLSCSSFFQQFFHCYCPVGFGRRTDPNGDYIRRYLPVLRGFPAKYIYDPWNAPEGIQKVAKCLIGVNYPKPMVNHAEASRLNIERMKQIYQQLSRYRGLGLLASVPSNPNGNGGFMGYSAENIPGCSSSGSCSQGSGILHYAHGDSQQTHLLKQGRSSMGTGLSGGKRPSQEEDTQSIGPKVQRQSTN | -0.5227 |  |  |
| TEAD4 (protein, UniProt Q15561 1-434, looked up) Transcriptional enhancer …: MEGTAGTITSNEWSSPTSPEGSTASGGSQALDKPIDNDAEGVWSPDIEQSFQEALAIYPPCGRRKIILSDEGKMYGRNELIARYIKLRTGKTRTRKQVSSHIQVLARRKAREIQAKLKDQAAKDKALQSMAAMSSAQIISATAFHSSMALARGPGRPAVSGFWQGALPGQAGTSHDVKPFSQQTYAVQPPLPLPGFESPAGPAPSPSAPPAPPWQGRSVASSKLWMLEFSAFLEQQQDPDTYNKHLFVHIGQSSPSYSDPYLEAVDIRQIYDKFPEKKGGLKDLFERGPSNAFFLVKFWADLNTNIEDEGSSFYGVSSQYESPENMIITCSTKVCSFGKQVVEKVETEYARYENGHYSYRIHRSPLCEYMINFIHKLKHLPEKYMMNSVLENFTILQVVTNRDTQETLLCIAYVFEVSASEHGAQHHIYRLVKE | 3.255 | 1.0247 | 0.6975 |
| CREBL2 (protein, UniProt O60519 1-120, looked up) cAMP-responsive …: MDDSKVVGGKVKKPGKRGRKPAKIDLKAKLERSRQSARECRARKKLRYQYLEELVSSRERAICALREELEMYKQWCMAMDQGKIPSEIKALLTGEEQNKSQQNSSRHTKAGKTDANSNSW | 0.3406 |  |  |
| CRSP9 (protein, UniProt O43513 1-233, looked up) Mediator of RNA polymerase II …: MGEPQQVSALPPPPMQYIKEYTDENIQEGLAPKPPPPIKDSYMMFGNQFQCDDLIIRPLESQGIERLHPMQFDHKKELRKLNMSILINFLDLLDILIRSPGSIKREEKLEDLKLLFVHVHHLINEYRPHQARETLRVMMEVQKRQRLETAERFQKHLERVIEMIQNCLASLPDDLPHSEAGMRVKTEPMDADDSNNCTGQNEHQRENSGHRRDQIIEKDAALCVLIDEMNERP | -0.379 |  |  |
| CRSP6 (protein, UniProt Q9NVC6 1-651, looked up) Mediator of RNA polymerase II …: MSGVRAVRISIESACEKQVHEVGLDGTETYLPPLSMSQNLARLAQRIDFSQGSGSEEEEAAGTEGDAQEWPGAGSSADQDDEEGVVKFQPSLWPWDSVRNNLRSALTEMCVLYDVLSIVRDKKFMTLDPVSQDALPPKQNPQTLQLISKKKSLAGAAQILLKGAERLTKSVTENQENKLQRDFNSELLRLRQHWKLRKVGDKILGDLSYRSAGSLFPHHGTFEVIKNTDLDLDKKIPEDYCPLDVQIPSDLEGSAYIKVSIQKQAPDIGDLGTVNLFKRPLPKSKPGSPHWQTKLEAAQNVLLCKEIFAQLSREAVQIKSQVPHIVVKNQIISQPFPSLQLSISLCHSSNDKKSQKFATEKQCPEDHLYVLEHNLHLLIREFHKQTLSSIMMPHPASAPFGHKRMRLSGPQAFDKNEINSLQSSEGLLEKIIKQAKHIFLRSRAAATIDSLASRIEDPQIQAHWSNINDVYESSVKVLITSQGYEQICKSIQLQLNIGVEQIRVVHRDGRVITLSYQEQELQDFLLSQMSQHQVHAVQQLAKVMGWQVLSFSNHVGLGPIESIGNASAITVASPSGDYAISVRNGPESGSKIMVQFPRNQCKDLPKSDVLQDNKWSHLRGPFKEVQWNKMEGRNFVYKMELLMSALSPCLL | -0.7101 |  |  |
